Results reported in patent publication US20120058906A1 (published 2012).
Positions count from the first letter of the chain named.

Tests used:
[1] = target: T1, rHuman IGF-1 sR (insulin-like growth factor-1 soluble receptor), CF (R&D Systems Cat#391-GR) (human, UniProt P08069 31-932); assay: MSD ECL titration, Fab 0.6 nM, blank 226
T1 construct: Bought soluble receptor; also called IGF-R1

[2] = target: T2, Recombinant Human DLL4 (R&D Systems Cat#1506-D4/CF) (human, UniProt Q9NR61 27-524); assay: MSD ECL titration, Fab 0.6 nM, blank 226
T2 construct: Bought recombinant protein; also called rHuman DLL4; delta-like protein 4

[3] = target: T3, rHuman EGF R/Fc Chimera, CF (R&D Systems Cat#344-ER) (human, UniProt P00533 25-645); assay: MSD ECL titration, Fab 0.6 nM, blank 226
T3 construct: Bought Fc chimera; Fc part of the bought chimera not given

[4] = target: T4, rHuman Notch-1/Fc Chimera, CF (R&D Systems Cat#3647-TK) (human, UniProt P46531 19-526); assay: MSD ECL titration, Fab 0.6 nM, blank 226
T4 construct: Bought Fc chimera; Fc part of the bought chimera not given

[5] = target: T5, rHuman ErbB2/Fc Chimera, CF (R&D Systems Cat#1129-ER) (human, UniProt P04626 23-652); assay: MSD ECL titration, Fab 0.6 nM, blank 226
T5 construct: Bought Fc chimera; also called HER2/neu; Fc part of the bought chimera not given

[6] = target: T6, rHuman HGF R/c-MET/Fc Chimera, CF (R&D Systems Cat#358-MT/CF) (human, UniProt P08581 25-932); assay: MSD ECL titration, Fab 0.6 nM, blank 226
T6 construct: Bought Fc chimera; also called HGF R/Fc; Fc part of the bought chimera not given

[7] = target: T7, rHuman Erythropoietin R/Fc Chimera, CF (R&D Systems Cat#963-ER) (human, UniProt P19235 25-250); assay: MSD ECL titration, Fab 0.6 nM, blank 226
T7 construct: Bought Fc chimera; also called EPO R/Fc; EPOR; Fc part of the bought chimera not given
T7 sequence: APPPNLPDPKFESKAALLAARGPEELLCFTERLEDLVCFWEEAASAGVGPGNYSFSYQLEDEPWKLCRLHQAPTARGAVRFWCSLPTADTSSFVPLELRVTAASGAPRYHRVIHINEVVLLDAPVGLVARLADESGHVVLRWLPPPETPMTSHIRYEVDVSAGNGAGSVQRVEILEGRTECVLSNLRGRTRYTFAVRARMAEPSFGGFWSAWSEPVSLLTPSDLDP

[8] = target: T8, rHuman CD44/Fc Chimera, CF (R&D Systems Cat#3660-CD) (human, UniProt P16070 21-220); assay: MSD ECL titration, Fab 0.6 nM, blank 226
T8 construct: Bought Fc chimera; Fc part of the bought chimera not given

[9] = target: T9, rHuman EGF R/Fc Chimera, CF (R&D Systems Cat#344-ER) (human, UniProt P00533 25-645); assay: ECL (MSD multi-spot), antigen on plate, Fab 10 nM
T9 construct: Bought Fc chimera; also called ErbB-1; not shown: Fc of the bought chimera

[10] = target: T10, Recombinant Human DLL4 (R&D Systems Cat#1506-D4/CF) (human, UniProt Q9NR61 27-524); assay: ECL (MSD multi-spot), antigen on plate, Fab 10 nM
T10 construct: Bought recombinant protein; also called delta-like protein 4

[11] = target: T11, rHuman CD44/Fc Chimera, CF (R&D Systems Cat#3660-CD) (human, UniProt P16070 21-220); assay: ECL (MSD multi-spot), antigen on plate, Fab 10 nM
T11 construct: Bought Fc chimera; not shown: Fc of the bought chimera

[12] = target: T12, rHuman Notch-1/Fc Chimera, CF (R&D Systems Cat#3647-TK) (human, UniProt P46531 19-526); assay: ECL (MSD multi-spot), antigen on plate, Fab 10 nM
T12 construct: Bought Fc chimera; not shown: Fc of the bought chimera

[13] = target: T13, rHuman P-Cadherin/Fc Chimera, CF (R&D Systems Cat#861-PC) (human, UniProt P22223 108-654); assay: ECL (MSD multi-spot), antigen on plate, Fab 10 nM
T13 construct: Bought Fc chimera; also called CDH3; not shown: Fc of the bought chimera

[14] = target: T14, rHuman Erythropoietin R/Fc Chimera, CF (R&D Systems Cat#963-ER) (human, UniProt P19235 25-250); assay: ECL (MSD multi-spot), antigen on plate, Fab 10 nM
T14 construct: Bought Fc chimera; also called EPO R/Fc; Epo R; not shown: Fc of the bought chimera
T14 sequence: T7 sequence

[15] = target: T15, rHuman IGF-1 sR (insulin-like growth factor-1 soluble receptor), CF (R&D Systems Cat#391-GR) (human, UniProt P08069 31-932); assay: ECL (MSD multi-spot), antigen on plate, Fab 10 nM
T15 construct: Bought soluble receptor; also called IGF-R1

[16] = target: T16, rHuman ErbB2/Fc Chimera, CF (R&D Systems Cat#1129-ER) (human, UniProt P04626 23-652); assay: ECL (MSD multi-spot), antigen on plate, Fab 10 nM
T16 construct: Bought Fc chimera; also called HER2/neu; not shown: Fc of the bought chimera

[17] = target: T17, rHuman HGF R/c-MET/Fc Chimera, CF (R&D Systems Cat#358-MT/CF) (human, UniProt P08581 25-932); assay: ECL (MSD multi-spot), antigen on plate, Fab 10 nM
T17 construct: Bought Fc chimera; also called HGF R/Fc; not shown: Fc of the bought chimera

[18] = target: T18, rHuman CD44/Fc Chimera, CF (R&D Systems Cat#3660-CD) (human, UniProt P16070 21-220); assay: ECL (MSD Multi-Spot) binding assay, antigen spotted on plate; Fab 240 nM; blank spot 316
T18 construct: Bought Fc chimera; Fc part of the bought chimera not given

[19] = target: T19, rHuman P-Cadherin/Fc Chimera, CF (R&D Systems Cat#861-PC) (human, UniProt P22223 108-654); assay: as above
T19 construct: Bought Fc chimera; also called CDH3; Fc part of the bought chimera not given
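Also: blank spot per well as comparator with Hit at signal to blank ratio of 4 or more.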

B1: Fab VH1-46_IGHD6-6*01_IGHJ1*01 & L6_IGKJ1*01 (Fab, V domains shown)
VH: QVQLVQSGAEVKKPGASVKVSCKASGYTFTSYYMHWVRQAPGQGLEWMGIINPSGGSTSYAQKFQGRVTMTRDTSTSTVYMELSSLRSEDTAVYYCAREEYSSSSAEYFQHWGQGTLVTVSS
VL: not shown
notes: Expressed in E. coli as Fab: heavy chain with CH1 plus Flag and His tags from Plasmid A, kappa light chain constant region from Plasmid C; also called Fab No. 1
For B1, the ECL signal [1] was 313, the ECL signal [2] was 508 and the ECL signal [3] was 309. For the same binder, the ECL signal [4] was 337, the ECL signal [5] was 215 and the ECL signal [6] was 256. It also gave an ECL signal [7] of 337 and an ECL signal [8] of 238.

B2: Fab VH1-46_IGHD6-6*01_IGHJ1*01_S102A_S103P_S104F & L6_IGKJ1*01_S30N (Fab, V domains shown)
VH: B1 VH with S102A, S103P, S104F
VL: EIVLTQSPATLSLSPGERATLSCRASQSVNSYLAWYQQKPGQAPRLLIYDASNRATGIPARFSGSGSGTDFTLTISSLEPEDFAVYYCQQRSNWPPWTFGQGTKVEIKR
notes: Fab
B2 gave an ECL signal [9] of 245 ECL signal, an ECL signal [10] of 33400 ECL signal and an ECL signal [11] of 286 ECL signal. It also gave an ECL signal [12] of 253 ECL signal, an ECL signal [13] of 283 ECL signal and an ECL signal [14] of 420 ECL signal. The ECL signal [15] was 233 ECL signal, the ECL signal [16] was 274 ECL signal and the ECL signal [17] was 239 ECL signal.

B3: Fab VH6-1_IGHD3-3*01_IGHJ4*01 & V4-3_IGLJ4*01 (Fab, V domains shown)
VH: QVQLQQSGPGLVKPSQTLSLTCAISGDSVSSNSAAWNWIRQSPSRGLEWLGRTYYRSKWYNDYAVSVKSRITINPDTSKNQFSLQLNSVTPEDTAVYYCAREYYDFWSGYYTDYFDYWGQGTLVTVSS
VL: QPVLTQPTSLSASPGASARLTCTLRSGINLGSYRIFWYQQKPESPPRYLLSYYSDSSKHQGSGVPSRFSGSKDASSNAGILVISGLQSEDEADYYCMIWHSSASFVFGGGTQLIIL
notes: Tested as a Fab made in E. coli; also called IGHV6-1*01
Work on B3 yielded an ECL signal [18] of 470 and an ECL signal [19] of 383.
